Reference: patent WO2011161970A1 (dated 2011)

How the values were obtained:
[1] = biological target: T1, human PDGFRα-Fc fusion protein (PDGFRα extracellular region [1-514 amino acids] and mouse IgG2a constant … (human; mouse, UniProt P16234 24-514); assay: EIA, PDGFRα-Fc immobilised on plate, serially diluted COS-1 culture supernatant
T1 construct: not shown: mouse IgG2a constant region

[2] = biological target: T1, human PDGFRα-Fc fusion protein (PDGFRα …); assay: EIA, PDGFRα-Fc immobilised on plate, serially diluted COS-1 culture supernatant, anti-human IgG constant region HRP detection

T1 sequence (P16234 24-514 limits assumed): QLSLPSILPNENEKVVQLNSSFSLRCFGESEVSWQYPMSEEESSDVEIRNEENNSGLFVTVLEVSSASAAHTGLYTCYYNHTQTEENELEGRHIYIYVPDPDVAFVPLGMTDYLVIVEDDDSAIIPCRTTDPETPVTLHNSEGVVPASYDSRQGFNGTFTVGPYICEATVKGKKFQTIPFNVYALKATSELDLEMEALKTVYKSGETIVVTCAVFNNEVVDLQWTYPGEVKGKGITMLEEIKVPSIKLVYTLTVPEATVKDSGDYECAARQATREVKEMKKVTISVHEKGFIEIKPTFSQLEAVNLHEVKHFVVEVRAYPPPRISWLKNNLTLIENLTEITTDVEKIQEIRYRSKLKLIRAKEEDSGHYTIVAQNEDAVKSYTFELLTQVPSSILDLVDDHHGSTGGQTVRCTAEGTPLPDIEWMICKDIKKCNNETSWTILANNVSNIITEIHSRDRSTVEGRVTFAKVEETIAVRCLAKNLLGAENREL

binding result [1]	binding result [2]	Binder
binds		24A1 antibody (mouse anti-human PDGFRα monoclonal antibody, clone number 24A1) (antibody, V domains shown, no cleavage site is stated; also called monoclonal antibody 24A1; mouse anti-PDGFRα antibody (24A1 antibody)) VH: DVQLQESGPGLVKPSQSLSLTCTVTGYSITSDYAWNWIRQFPGNKLEWVGYISYSGSTSYNPSLKSRISITRDTSKNQFFLQLNSVTTEDTATYYCARRDYRYGYWYFDVWGAGTTVTVSS VL: DIQMNQSPSSLSASLGDTITITCHASQNIHVWLTWYQQKPGNIPKLLIYKASNLHTGVPSRFSGSGSGTGFTLTISSLQPEDIATYYCQQGQSYPWTFGGGTKLEIKR
	binds	humanized anti-PDGFRα antibody (24A1) (antibody, human IgG1, kappa, V domains shown, also called humanized 24A1 antibody; Hu PDGFRa (24A1)) VH: DVQLQESGPGLVKPSQTLSLTCTVSGYSITSDYAWNWIRQPPGKGLEWVGYISYSGSTSYNPSLKSRISITRDTSKNQFSLKLSSVTAADTAVYYCARRDYRYGYWYFDVWGAGTTVTVSS VL: DIQMNQSPSSVSASVGDRVTITCHASQNIHVWLTWYQQKPGKAPKLLIYKASNLHTGVPSRFSGSGSGTDFTLTISSLQPEDFATYYCQQGQSYPWTFGGGTKLEIKR
binds		21A1 antibody (mouse anti-human PDGFRα monoclonal antibody, clone number 21A1) (antibody, V domains shown, no cleavage site is stated; also called monoclonal antibody 21A1; hPDGFRα(21A1) MoAb) VH: EVKLLESGGGLVQPGGSLKLSCAASGFDFSIFWMSWVRQAPGKGLEWIGEINPDSSTINYTPSLKDKFIISRDNAKNTLYLQMSKVRSEDTALYFCARQRFGPYWGQGTLVTVSA VL: DIVMTQSHKFMSTSVGDRVSITCKASQDVSTAVAWYQQKPGQSPNLLIYSASYRYTGVPDRFTGSGSGTDFTFTISSVQAEDLAVYYCQQYYSTPYTFGGGTKLEIKR
